# Experiment: soluble on expression in E. coli; label from the status in PepcDB or PDB records
row,Sequence,soluble on expression in E. coli
1,MSLMKSSPLVRQASTEKESTKSENLTEYLIEAIVEGQLAPGSKISEPELAKQFQVSRGPLREALMRVEGLGLIERIPHIGARVIQLSPTKLVELYAVREALEGMAARLAARNITEIELAGLESLLSTHSTHIDQVEGASYFHQQGDFDFHYRIIQACRNQQLIGLLCDELYHLLRMYRYQSPRSHSRPVEALEEHKFILRAIRQRDEELAEMLMRRHISRSRQLIEQQIMLDAQQQGEGHHHHHH,soluble
2,KGGVWRNTEDEILKAAVMKYGKNQWSRIASLLHRKSAKQCKARWYEWLDPSIKKTEW,soluble
3,SDPVDYQAEDATIVQGAVESNHAGYTGTGFVNYDNVAGSSVEWTVTVPSAGTYDVVVRYANGTTTSRPLDFSVNGSISASGVAFGSTGTWPAWTTKTVRVTLAAGVNKIKAVATTANGGPNVDKITL,soluble
4,GPGSMSSADLFKKFTLQNVAQIANSSHKEQMQVRHDLAEQYPQLADFWEDIMPRKSDIMLVRCHDQVHCVTLVSAQPEVLFFNHHNGPYIPHLKLLHKYPFILQRHQVDVGACKHVLSGANIMCPGLTSKGGYITPEIPAGQLVAVYVETKEHAVAIGKTLMSSEEIKKVNSGPCIENIHHVGDGLWMNRVLSASHIGAR,soluble
5,MNVMQENQIKLIEHIKQAVVQAVGLEETEVPEILLEVPKDKKHGDYSTNIAMQLARVAKKAPRQIAESIVPELKKDTKLIKEVEIAGPGFINFYLDNAYLTDLVPVILTEDKKYG,not soluble
6,MVRQPAVAGQFYTDDPRRLREELGHLIRPVPAPRRVTGVIAPHAGYMYSGAIAGAVYGSIVIPRTVVILGPNHHGLGAAASLYPDGTWLSPLGEVPIEQRLSSLVLEHVPQAEPDVIAHRFEHSLEVQVPFLRYLNSDVAIVPMCLGGGGYGWCRQVGEGLARAIAAYGEEVLIVASSDMTHYESAESARLKDEAALSCVLALDAEGLLKVCRQRGITMCGVIPSTVMLVAARELGASRAELIRYGTSGDVTGDNRQVVAYAAVAVYLEHHHHHH,not soluble
7,KSIRLAKEKESQADYISTYVEWQYIDKNITQCFDKMTNMKLEVAWKAKKKDTVVQIHNQDFTVDLSTNTATAPQGQTFTVQRLVKA,soluble
8,DCEKEGEVQWFALPVVLVSGCKKERAIEMKLPTEALFACLQNYPHLRALTQETQWLPYLVHSSDLSAVAPDEWWRAKQNTEAAAQHLRRFAPRPLLLPEGQSVHVVYALGFGSGKVQTALGQNLLQAGLPLMQVWQENLASEGVTLFANPLSPDSPVRALSDGSHTRQRMAMDVFAANAIRAVRMQSPR,not soluble
9,MLERQQDSFRFICRTCPFYYQVEGKMERKVFGLQKKQEADILGGDKQWELADQTDTLCPRCSHGKAYFFQMQTRSADEPMSTFYRCVHCGHQWKEN,soluble
10,MSYNGSYHQNHHSTLQVKSKFDSEWRRFSIPMHSASGVSYDGFRSLVEKLHHLESVQFTLCYNSTGGDLLPITNDDNLRKSFESARPLLRLLIQRRGESWEEKYGYGTDSDKRWKGISSLMAQKPPKRSYSISNPEDFRQVSAIIDVDIVPEAHRRVRLCKHGQERPLGFYIRDGTSVRVTERGVVKVSGIFISRLVDGGLAESTGLLGVNDEVLEVNGIEVLGKTLDQVTDMMVANAHNLIITVKPANQRNTLSRGPSQQGTPNASEMSAATAAATGGIQRPMKMNGSSDGSYHPKQHDANDSDSGED,not soluble
11,MSRLSSLLILVCIGALLVETFAAPDEPIIVRSKRQQCRCVKNPNGGLTCSCAKGPADGSSSSIGSGVQYDAPQSADIANQLTAMSQQTTGMSGARCGCIQIVIQGAPQYNCQCGDQSGNPLPTTTTMAPTTSSTTTTTTTTTQAPTTTSTTTTQSPVSYPQVPTQTQGSNGACNCIMISITSPQTAQYQCQCAQPQQQQQQQVQYDTYEYAPVQTTPTPMPTTQVPTTQAPTTQAPTMPTSSSPVQYADTAATQYPLTTTCVMYVNVPTTACSCLPQYDQCAQNVCCLKSKFRSYKKAEETQPSTLDVLMNVLQTIKTKLE,not soluble
12,MDSAFVDRAWDKWVTTGNVGSSDFEKKMKNPERKNKMLLFGDLIVGICSGPSRLLSTIAKQEGIDIYPVDLKQFIDFMRCGNLPTETFVLGSNQCKNIITSIHENWFAARCLNTSQPAGEGAIVMQTAVYVLVALYDGSIGSASQAMAAADQFASQLSRKNF,soluble
13,MSLANKKFWLITDTHFDDEFTVGSSSKCLAIDCCHSNSIPRKGQENFISGSCGDYNCYSPLNVSESAFDYIAKHQSESKLIFWLMDVVPGDVITQSKETNKKRIQLQVEALKKRLSGFRIYPVPGNHDYWLSSNWQYPPQNQWMLDFMGDLFKDWLSPNALEQFKKGGFYTELIDSGVRIIALYLAYVDVYGSHCNEYVENDPAGMMKWFNETLELARKNGERVILLSHEGVGLKESGTIDVVPKFNEDFSYAMNEYSDIIISHLSGHSHFNSFRVLPNITKPTFHIIMNPAMTSFKNLNPRFRLYEYDRKNIKDYTNYMLNINKCNKNNKFEWEIEYNAKELFGIEEYTTKNLKEFIEQLAVDDELWTKFDSHYSTINRKCEGNCRKDLLCSIHCMKESEFITCINQKEGHHHHHH,not soluble
14,MWRGKYSGGYQNRFVSAKSSGTSSLSDGKSMNNVPPPAALTVGNAPVPPPNRNILLSNRKEQEMKKEQEYANLMAYGSTSEKQSRRKRIYDDEYLEGGSDDEKPASSSSKLAADDDDEEDELDAFMAGIEKQASSDKKVSEQKEKDRKEGKDTEDPSKKGLGRADIDEEDMQESLFKFMEEYKEKHENDDEQLEYDEDGNIIWSWKKVIDPLPDIDHSQIQYQKFNKNFYEEHEDIKRLHYMDVIRLQNTMNLRVGGLKPPRPVCSFAHFSFDKLLMEAIRKSEYEQPTPIQAMAIPSALSGRDVLGIAKTGSGKTAAYLWPAIVHIMDQPDLKAGEGPVAVIVVPTRELAIQVFQEAKKFCKVYNINPICAYGGGSKWEQSNELQNEGAEMVVCTPGRIIDLVKMGATNFLRTTFLVFDEADRMFDMGFEAQVKSISDHVRPDRQCLMFSATFKQKVERLARDALVDPVRIVQGEVGEANADIEQKVFVMQNQDVKLHWLIRNLVEFASLGKVLIFVTKKLDSEDVAKKLKMKDFDIVLLHGDMLQAERNENLLKFRKKSQILVATDVAARGLDISEIRTVINFDMARDIDTHVHRIGRTGRAGHKGTAYTLVTEKDIEMVGHLVKNLESVSQEVPKPLMDLAMKSSWFRGQRAGNGGPSTGTQTRGRMGLGYTPKVRQVGGGATGAQFDPLKEQKSCRGGGNQTVDGMIRNAQSFATSSSSSSSSSSGPASGANRAQMLKSAFQKSFQTTFQRPTNESSNLPQQVASDPRPEWKKKVDELNAKIAQQQASSASGGSSSSSSSSKRSRWE,not soluble
15,MSLKLPGKIAIMGGGSWATAIAKMCLAQEDSINWYMRRDDRIADFKRLGHNPAYLTGVKFDTKRITFSSNINDVVKESDTLIFVTPSPYLKAHLKKLKTKIKDKFIITAIKGIVPDDNVIVSEYFTKEYGVPPENIAVLAGPCHAEEVALERLSYLTIACPDKDKARIFARRLGSSFIKTSVSDDVAGIEYSSVLKNVYAIAAGICSGLKYGDNFQAVLISNAIQEMNRFLNTVHPLNRNVDDSVYLGDLLVTGYSNFSRNRTFGSMIGKGYSVKSAQIEMEMIAEGYYGTKCIKEINKHHHVNMPILDAVYNILYERISPMIEIKLLTDSFREGHHHHHH,soluble
16,GPGSMIRTTAAAARLPQSTQGWVPLMRRALEFPIDSVTFPSHFYLHTVTNGTASTVGFSPQKEPVGLTALRQCAVLVLLSPAATGNGFQDMCITLTKRTATMGSHKSEMSFPGGHVDDDETLRNAAQRETLEEVGLPPSEYEIIGSLTPITTNALSARVTPFVAVATSPAQPYRASPVEVDSIHYLHMSMLLLSASTGHARVIKYRSFTSDRPCFFPCFFASPAQTVVSSAVCRSPKATGVADDCGFDPMLPEDF,not soluble
17,GPGSMHEDGQFLRAFLLRVLANDMQRMLATNTCATYFRNIPLEPEYDASGNRTNTPENVVMEKRLRVMDDISKLLRTYVERAEYAANKSKDINRRIYFTAEQIETGDYGALIGPRGLVHQQLEKETNCHIVLVGRGITNPLKDTNPNAASMALEDPHVRITATTEEDLQTAAERIEWILSDEPEAVEFRENNRRRMAQVDGRYDPRTWMTAAEKRKKAAAEKAAAAGGAAAGEDETKAEKGRKREREEAPVEEEDTELNEFLEDL,soluble
18,MGSDKIHHHHHHMMGYNLTTPFLIYQWNFPMFPWDQIDTVLLDMDGTLLDLHFDNHFWLSLVPGTLSRMHGISAEAATSHVRAAYDKVAGTLEWYCLDYWERELGLDIMALHRTLVDRIQLRQDSMPFLTALADAGKRRILLTNAHPNSLALKLEHTELASGLDEMLSSHQTGHPKESPLFWQAVFARFELNPRRCLFIDDSEAILLAAKHAGVGFQLGISNPDSQQPNKVFHDFPAIHDYRLLLNE,not soluble
19,MFTAGSATVTPKLNGVAGPAFQVIKDSLTLGLNALTLTDVTKNAAYGVEIESLVLEINAPAA,soluble
20,SPRPPDDPGFGPHQRLEKLDSLLSDYDILSLSNIQQHSVRKRDLQTSTHVETLLTFSALKRHFKLYLTSSTERFSQNFKVVVVDGKNESEYTVKWQDFFTGHVVGEPDSRVLAHIRDDDVIIRINTDGAEYNIEPLWRFVNDTKDKRMLVYKSEDIKNVSRLQSPKVCGYLKVDNEELLPKGLVDREPPEGKT,soluble
21,MTTQTTPAHIAMFSIAAHGHVNPSLEVIRELVARGHRVTYAIPPVFADKVAATGPRPVLYHSTLPGPDADPEAWGSTLLDNVEPFLNDAIQALPQLADAYADDIPDLVLHDITSYPARVLARRWGVPAVSLSPNLVAWKGYEEEVAEPMWREPRQTERGRAYYARFEAWLKENGITEHPDTFASHPPRSLVLIPKALQPHADRVDEDVYTFVGACQGDRAEEGGWQRPAGAEKVVLVSLGSAFTKQPAFYRECVRAFGNLPGWHLVLQIGRKVTPAELGELPDNVEVHDWVPQLAILRQADLFVTHAGAGGSQEGLATATPMIAVPQAVDQFGNADMLQGLGVARKLATEEATADLLRETALALVDDPEVARRLRRIQAEMAQEGGTRRAADLIEAELPARHERQEPVGDRPNVGDRPAGVRSDRQRSAL,soluble
22,MAKEWFTVKECLGLPGFPGSEPAVRERLYKYSEGKEGVRRKRVKSKAEEFHISVFPLYVHRYLDDSGEEPTPEPISLQEAEPEDIWEMMFRLLTPEQRKQVTGRFKVRGMKAVFPFLFDDTPPR,not soluble
23,MSLKILIGEFAVGTDIEKSLIPEGAAMLKTLAESFVRVGHEVCYPSAGTEIGSGTALKSTADSFVQVIEREAKNCDAGLLIAPDGMLPELNRILAENTANLGCSPEAAARCADKLRCTEILKTAGINAPEIVREAEEGKKYVIKPRFGCGAEATYLVSGFENTGEFIASEYIEGEHLSVSLIAGNKPLPLTVNRQFIEFNEKKDGINPENIEVSGIKYNGSLTPYETPRRGELYETAVSAVKYLGCFGYVGVDIVLSEVPYVVDVNPRPTASIFGISRVMREEIGELLLTNRFGTLPDSVRVEGEYHFSKDMLGELFGKNEGHHHHHH,soluble
24,MGKKIITISREYGSGGRQVGLTVAKKLGMEFYDKELIDAAAKEIGFPTEMIADREQRLTNSLLYNFAMGTLYGIAYPREPKVSELPLTEQIYQAQKKAIEEAAKRGSCIFVGRCADYILKSRPDVLRVFIYADRDIRKRRAIEEYGEIEEYIDEFMYQTDKRRRIHYENYTNQKWGSRENYDLMLNSGDLGLDKCVELLCEAVK,not soluble
25,MSLGYWGVMGNCFRRLSLFGQPTQAKYEMLCSSDDLETEELTFFLDMTYKDFGVYQNDIISHQKDTETMKTLLGLLPMYKKTKLRHTVMERCLSNCPNHVKDALCVELMKAEKILQTMDVVFMKTLIGEFSMCTENLNQLLNKFATDQSTLSDVEKINSLIEIDGENSKRLLVELDPILHEETGLYQALPNVVTEAPSEKVKSIRVESEGESV,not soluble

# Source: the DeepSol protein solubility set
